In one test the target is T1, IL-3R α and β chains (Homo sapiens, UniProt P26951).
T1 construct: expressed in transfected cells; host or cells: COS (monkey fibroblast) cells, transient co-transfection
T1 sequence (P26951 19-378): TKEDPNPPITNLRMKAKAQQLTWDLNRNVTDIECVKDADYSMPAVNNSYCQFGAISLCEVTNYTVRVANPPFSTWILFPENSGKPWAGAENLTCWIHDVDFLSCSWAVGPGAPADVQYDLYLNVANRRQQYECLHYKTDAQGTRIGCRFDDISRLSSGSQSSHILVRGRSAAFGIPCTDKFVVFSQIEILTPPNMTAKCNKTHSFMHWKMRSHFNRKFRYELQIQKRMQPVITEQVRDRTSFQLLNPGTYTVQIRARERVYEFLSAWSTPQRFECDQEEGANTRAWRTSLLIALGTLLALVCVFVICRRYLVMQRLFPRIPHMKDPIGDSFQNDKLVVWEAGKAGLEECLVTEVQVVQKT
The experiment in a line: Competition for 125I-7G3 binding to COS cells expressing IL-3R α and β chains by IL-3 or GM-CSF. As to conditions: COS cells transfected with IL-3Rα and β chain, preincubated, 1 nM 125I-7G3.

A further test concerns the target T2, IL-3Rα chain (Homo sapiens, UniProt P26951).
T2 construct: expressed in transfected cells
T2 sequence (P26951 19-378): T1 sequence (P26951 19-378)
Nature of the test: Competition for 125I-7G3 binding to F6 cells by IL-3 or GM-CSF. As to conditions: F6 cells expressing IL-3Rα chain alone, preincubated, 1 nM 125I-7G3.

Description for IL-3R α and β chains: (§1) The binding curve was analysed by Scatchard transformation.^31 In competition binding experiments F6 cells or COS cells co-expressing IL-3R α and β chains were preincubated for 2 hours at 4° C. with a range of concentrations of IL-3 or GM-CSF before adding 1 nM of ^125 I-7G3 for a further 2 hours.
Description for IL-3Rα chain: as §1

Take “GM-CSF: GM-CSF, a gift from Genetics Institute”: the “inhibition of 125I-7G3 binding to the IL-3R” value was “not” in the test with IL-3R α and β chains; “not” with IL-3Rα chain.
